{"source": "patent US20160040149A1", "about": "“Compositions Having Dicamba Decarboxylase Activity and Methods of Use” (priority 2013, published 2016)", "experiment": "DNA shuffling libraries: 14CO2 capturing assay in 384-well format, fold activity of backbone (Megatable 2)", "conditions": "relative to backbone SEQ ID NO: 509 (DDEC0810)", "data": [{"molecule": "526 (protein, Dicamba decarboxylase variant) MAQGLVALEEHFAIPETLNDAAGFVPGDYWKELQHRLMDMQDTRLKEMDKHEIGTMILSLAAPAVQAIPDRRKAIEIAKRANDFLAEEVAKRPDRFLAFAALPMQDPEAATEELQRCVNDLGFVGAMVNGFSQEGDGQTPLYYDLPQYRPFWGEVEKLDVPFYLHPRNPLPQDSRIYDGHPWLLGPTWAFAQETAVHALRLMASGLFDEHPRLNIILGHMGEGLPYMMYRIDHRIAWVKAPPDYPAKRRFMDYFLENFHITTSGNFRTQTLIDAILEIGADRILFSTDWPFENIDHAADWFNATSIAEADRVKIGRTNARRLFKLDGR", "values": [{"measurement": "Fold Activity", "value": 1.0, "unit": "fold"}]}, {"molecule": "517 (protein, Dicamba decarboxylase variant) MAQGKVALEEHFAIPETLQDAAGFVPGDYWKELQHRLLDIQDTRLKEMDKHGIGTMILSLAAPAVQAIPDRRKAIELARRANDFLAEEVAKRPDRFLAFAALPLQDVDAATEELQRCVNDLGFVGAMVNGFSQEGDGQTPLYYDLPQYRPFWGEVEKLDVPFYLHPRNPLPQDSRIYDGHPWLLGPTWAFAQETAVHALRLMASGLFDEHPRLNIILGHLGEGLPYMMYRIDHRIAWVKAPPDYPAKRRFMDYFLENFHITTSGNFRTQTLIDAILEIGADRILFSTDWPFENIDHAADWFNATSIAEADRVKIGRTNARRLFKLDVR", "values": [{"measurement": "Fold Activity", "value": 1.2, "unit": "fold"}]}, {"molecule": "520 (protein, Dicamba decarboxylase variant) MAQGKVALEEHFAIPETLNDAAGFVPGDYWKELQHRLMDIQDTRLKEMDKHEIGTMVLSLAAPAVQAIPDRRKAIEIARRANDFLAEEVAKRPDRFLAFAALPMQDVDAATSELQRCVNDLGFVGAMVNGFSQEGDGQTPLYYDLPQYRPFWGEVEKLDVPFYLHPRNPLPQDSRIYDGHPWLLGPTWAFAQETAVHALRLMASGLFDEHPRLNIILGHMGEGLPYMMYRIDHRIAWVKAPPDYPAKRRFMDYFLENFHITTSGNFRTQTLIDAILEIGADRILFSTDWPFENIDHAADWFNATSIAEADRVKIGRTNARRLFKLDGS", "values": [{"measurement": "Fold Activity", "value": 0.8, "unit": "fold"}]}, {"molecule": "524 (protein, Dicamba decarboxylase variant) MAQGLVALEEHFAIPETLQDAAGFVPGDYWKELQHRLLDIQDTRLKEMDKHEIGTMILSLAAPAVQAIPDRRKAIEIARRANDFLAEEVAKRPDRFLAFAALPMQDVEAATSELQRCVNDLGFVGAMVNGFSQEGDGQTPLYYDLPQYRPFWKEVEKLDVPFYLHPRNPLPQDSRIYDGHPWLLGPTWAFAQETAVHALRLMASGLFDEHPRLNIILGHMGEGLPYMMYRIDHRIAWVKAPPDYPAKRRFMDYFLENFHITTSGNFRTQTLIDAILEIGADRILFSTDWPFENIDHAADWFNATSIAEADRVKIGRTNARRLFKLDGR", "values": [{"measurement": "Fold Activity", "value": 1.1, "unit": "fold"}]}, {"molecule": "527 (protein, Dicamba decarboxylase variant) MAQGKVALEEHFAIPETLQDAAGFVPGDYWKELQHRLLDIQDTRLKEMDKHEIGTMILSLAAPAVQAIPDRRKAIEIARRANDFLAEEVAKRPDRFLAFAALPLQDVDAATEELQRCVNDLGFVGAMVNGFSQEGDGQTPLYYDLPQYRPFWGEVEKLDVPFYLHPRNPLPQDSRIYDGHPWLLGPTWAFAQETAVHALRLMASGLFDEHPRLNIILGHMGEGLPYMMYRIDHRIAWVKAPPDYPAKRRFMDYFLENFHITTSGNFRTQTLIDAILEIGADRILFSTDWPFENIDHAADWFNATSIAEADRVKIGRTNARRLFKLDVS", "values": [{"measurement": "Fold Activity", "value": 1.1, "unit": "fold"}]}, {"molecule": "521 (protein, Dicamba decarboxylase variant) MAQGLVALEEHFAIPETLNDAAGFVPGDYWKELQHRLLDIQDTRLKEMDKHGIGTMILSLAAPAVQAIPDRRQAIELARRANDFLAEEVAKRPDRFLAFAALPLQDVDAATEELQRCVADLGFVGAMVNGFSQEGDGQTPLYYDLPQYRPFWGEVEKLDVPFYLHPRNPLPQDSRIYDGHPWLLGPTWAFAQETAVHALRLMASGLFDEHPRLNIILGHMGEGLPYMMYRIDHRIAWVKAPPDYPAKRRFMDYFLENFHITTSGNFRTQTLIDAILEIGADRILFSTDWPFENIDHAADWFNATSIAEADRVKIGRTNARRLFKLDGR", "values": [{"measurement": "Fold Activity", "value": 1.5, "unit": "fold"}]}, {"molecule": "523 (protein, Dicamba decarboxylase variant) MAQGLVALEEHFAIPETLQDAAGFVPGDYWKELQHRLLDIQDTRLKEMDKHEIGTMILSLAAPAVQAIPDRRKAIEIARRANDFLAEEVAKRPDRFLAFAALPLQDVDAATEELQRCVNDLGFVGAMVNGFSQEGDGQTPLYYDLPQYRPFWKEVEKLDVPFYLHPRNPLPQDSRIYDGHPWLLGPTWAFAQETAVHALRLMASGLFDEHPRLNIILGHMGEGLPYMMYRIDHRIAWVKAPPRYPAKRRFMDYFLENFHITTSGNFRTQTLIDAILEIGADRILFSTDWPFENIDHAADWFNATSIAEADRVKIGRTNARRLFKLDGR", "values": [{"measurement": "Fold Activity", "value": 1.2, "unit": "fold"}]}, {"molecule": "519 (protein, Dicamba decarboxylase variant) MAQGKVALEEHFAIPETLQDAAGFVPGDYWKELQHRLLDIQDTRLKEMDKHEIGTMVLSLAAPAVQAIPDRRKAIEIARRANDFLAEEVAKRPDRFLAFAALPMQDPEAATSELQRCVNDLGFVGAMVNGFSQEGDGQTPLYYDLPQYRPFWGEVEKLDVPFYLHPRNPLPQDSRIYDGHPWLLGPTWAFAQETAVHALRLMASGLFDEHPRLNIILGHMGEGLPYMMYRIDHRIAWVKAPPDYPAKRRFMDYFLENFHITTSGNFRTQTLIDAILEIGADRILFSTDWPFENIDHAADWFNATSIAEADRVKIGRTNARRLFKLDGR", "values": [{"measurement": "Fold Activity", "value": 1.1, "unit": "fold"}]}, {"molecule": "525 (protein, Dicamba decarboxylase variant) MAQGLVALEEHFAIPETLQDAAGFVPGDYWKELQHRLMDIQDERLKEMDKHGIGTMILSLAAPAVQAIPDRRKAIEIARRANDFLAEEVAKRPDRFLAFAALPLQDVDAATSELQRCVADLGFVGAMVNGFSQEGDGQTPLYYDLPQYRPFWGEVEKLDVPFYLHPRNPLPQDSRIYDGHPWLLGPTWAFAQETAVHALRLMASGLFDEHPRLNIILGHMGEGLPYMMYRIDHRIAWVKAPPDYPAKRRFMDYFLENFHITTSGNFRTQTLIDAILEIGADRILFSTDWPFENIDHAADWFNATSIAEADRVKIGRTNARRLFKLDWT", "values": [{"measurement": "Fold Activity", "value": 1.0, "unit": "fold"}]}, {"molecule": "522 (protein, Dicamba decarboxylase variant) MAQGLVALEEHFAIPETLQDAAGFVPGDYWKELQHRLLDIQDTRLKEMDKHEIGTMILSLAAPAVQGIPDRRKAIEIARRANDFLAEEVAKRPDRFLAFAALPLQDVDAATEELQRCVNDLGFVGAMVNGFSQEGDGQTPLYYDLPQYRPFWGEVEKLDVPFYLHPRNPLPQDSRIYDGHPWLLGPTWAFAQETAVHALRLMASGLFDEHPRLNIILGHMGEGLPYMMYRIDHRIAWVKAPPDYPAKRRFMDYFLENFHITTSGNFRTQTLIDAILEIGADRILFSTDWPFENIDHAADWFNATSIAEADRVKIGRTNARRLFKLDGR", "values": [{"measurement": "Fold Activity", "value": 1.1, "unit": "fold"}]}, {"molecule": "518 (protein, Dicamba decarboxylase variant) MAQGLVALEEHFAIPETLNDAAGFVPGDYWKELQHRLLDIQDTRLKEMDKHEIGTMVLSLAAPAVQAIPDRRKAIELAKRANDFLAEEVAKRPDRFLAFAALPLQDVDAATEELQRCVADLGFVGAMVNGFSQEGDGQTPLYYDLPQYRPFWGEVEKLDVPFYLHPRNPLPQDSRIYDGHPWLLGPTWAFAQETAVHALRLMASGLFDEHPRLNIILGHMGEGLPYMMYRIDHRIAWVKAPPDYPAKRRFMDYFLENFHITTSGNFRTQTLIDAILEIGADRILFSTDWPFENIDHAADWFNATSIAEADRVKIGRTNARRLFKLDGR", "values": [{"measurement": "Fold Activity", "value": 1.5, "unit": "fold"}]}]}
